Columns and labels:
[1] = target: the molecule itself; test: SEC-MALS; protein concentration screen 1.4-9.7 uM, no K2HPO4; WTC-030S5 column, 20 mM Tris-HCl pH 8.5, 500 mM NaCl, 23°C
[2] = target: the molecule itself; test: SEC-MALS; phosphate screen, K2HPO4 0, 25, 50 and 100 mM; protein 5 uM in the peak (injected 70 uM); WTC-030S5 column, 20 mM Tris-HCl pH 8.5, 500 mM NaCl, 23°C
[3] = target: D3Z7P3; test: SAXS; phosphate (Pi) titration 0-100 mM, microfluidic mixing chip, 36 sec mixing time; GACwt constant at 30.7 uM, GACΔC constant at 33.8 uM; 20 mM Tris-HCl, 500 mM NaCl, 0.5 mM TCEP, 1 mM sodium azide; analysed with OLIGOMER; conditions: other: SAXS

B1: Glutaminase C wildtype construct (mouse GAC, residues 73-603) (enzyme, UniProt D3Z7P3-2 73-603, looked up)
chain: SSSPSEILQELGKGGTPPQQQQQQQQQPGASPPAAPGPKDSPGETDAFGNSEGKEMVAAGDNKIKQGLLPSLEDLLFYTIAEGQEKIPVHKFITALKSTGLRTSDPRLKECMDMLRLTLQTTSDGVMLDKDLFKKCVQSNIVLLTQAFRRKFVIPDFMSFTSHIDELYESAKKQSGGKVADYIPQLAKFSPDLWGVSVCTVDGQRHSIGDTKVPFCLQSCVKPLKYAIAVNDLGTEYVHRYVGKEPSGLRFNKLFLNEDDKPHNPMVNAGAIVVTSLIKQGVNNAEKFDYVMQFLNKMAGNEYVGFSNATFQSERESGDRNFAIGYYLKEKKCFPEGTDMVGILDFYFQLCSIEVTCESASVMAATLANGGFCPITGERVLSPEAVRNTLSLMHSCGMYDFSGQFAFHVGLPAKSGVAGGILLVVPNVMGMMCWSPPLDKMGNSVKGIHFCHDLVSLCNFHNYDNLRHFAKKLDPRREGGDQRHSFGPLDYESLQQELALKDTVWKKVSPESSDDTSTTVVYRMESLGERS
notes: GAC isoform of 603 residues; also called GACwt; GAC wildtype; source: expressed from a pET28a vector, purified (Ni-column, anion-exchange, gel filtration); not shown: histidine tag, N-terminal, cleaved
With B1 the “stoichiometry N” value [1] was 4, the “stoichiometry N” value [2] was ~4 and the “volume fraction of octamers at 80 mM Pi” value [3] was “a maximum of 38% at 80 mM Pi”.

— article PMC3787022, “Small Angle X-Ray Scattering Studies of Mitochondrial Glutaminase C Reveal Extended Flexible Regions, and Link Oligomeric State with Enzyme Activity” (PLoS ONE, 2013)
